The target in the assay is glypican-3 (GPC3) on GPC3-positive liver cancer cell lines HepG2-C3A and Hep3B (human) (UniProt P51654). Put plainly: flow cytometry on GPC3-positive HepG2-C3A and Hep3B cells, anti-hIgG-AF488 detection. For orientation: A flow cytometer gives signals particle by particle.
Chain of glypican-3 (GPC3) on GPC3-positive liver cancer cell lines HepG2-C3A and Hep3B (human) (P51654 25-580): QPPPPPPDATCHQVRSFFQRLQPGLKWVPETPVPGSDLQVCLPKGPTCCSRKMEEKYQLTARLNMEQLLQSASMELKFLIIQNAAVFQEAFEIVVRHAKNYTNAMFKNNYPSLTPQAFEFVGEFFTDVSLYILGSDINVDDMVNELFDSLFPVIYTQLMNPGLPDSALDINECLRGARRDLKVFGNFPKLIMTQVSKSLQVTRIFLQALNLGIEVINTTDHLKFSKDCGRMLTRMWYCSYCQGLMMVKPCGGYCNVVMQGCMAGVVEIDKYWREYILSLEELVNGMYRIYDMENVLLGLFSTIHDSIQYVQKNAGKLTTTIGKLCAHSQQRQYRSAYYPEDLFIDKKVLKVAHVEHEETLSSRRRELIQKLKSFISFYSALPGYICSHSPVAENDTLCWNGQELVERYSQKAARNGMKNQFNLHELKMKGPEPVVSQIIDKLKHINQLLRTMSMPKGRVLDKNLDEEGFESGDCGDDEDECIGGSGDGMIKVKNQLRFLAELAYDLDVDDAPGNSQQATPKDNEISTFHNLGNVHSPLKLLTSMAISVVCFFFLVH

B1: ARD103 antibody (antibody, human IgG1, kappa, V domains shown)
VH: QVQLVESGAEVKKPGASVKVSCKASGYTFTDYEMHWVRQAPGQGLEWMGALDPKTGDTAYSQKFKGRVTLTADKSTSTAYMELSSLTSEDTAVYYCTRFYSYTYWGQGTLVTVSS
VL: DVVMTQSPLSLPVTPGEPASISCRSSQSLVHSNGNTYLHWYLQKPGQSPQLLIYKVSNRFSGVPDRFSGSGSGTDFTLKISRVEAEDVGVYYCSQNTHVPPTFGQGTKLEIKR
With B1, the EC50 (commonly the concentration needed to bring the measured effect to its halfway point) was in the range of 3.5 to 4 nM.

(Values after patent US20240024499A1.)
